Key:
HeLa Kyoto [1] = test: thermal stability score vs G1/S (z-score of summed log2 fold changes over temperatures); higher = more thermally stable than in G1/S
HeLa Kyoto [2] = test: solubility change mitosis vs G1/S (difference of NP-40 vs SDS log2 ratios) (log2 ratio difference); higher = more soluble in mitosis
HeLa Kyoto [3] = test: melting temperature (median over replicates), in situ; higher = more thermally stable
HeLa Kyoto [4] = test: solubility in G1/S (NP-40 vs SDS abundance) (log2 ratio); higher = more soluble; details: cell cycle stage: G1/S
[5] = cell cycle stage: early G1 (4.5 h after nocodazole release)
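For melting temperature (median over replicates), in situ in this document: HeLa Kyoto cells synchronized by double thymidine or nocodazole block, proteins quantified by TMT10plex mass spectrometry, three independent biological replicates.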
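For solubility change mitosis vs G1/S (difference of NP-40 vs SDS log2 ratios) in this document: synchronized HeLa Kyoto cells (double thymidine block for G1/S, nocodazole release for mitosis), protein amounts in NP-40 versus SDS lysates quantified by mass spectrometry, three biological replicates.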
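For solubility in G1/S (NP-40 vs SDS abundance) in this document: HeLa Kyoto cells arrested at G1/S by double thymidine block, proteins quantified by TMT10plex mass spectrometry in mild NP-40 versus SDS extracts, three biological replicates.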
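For thermal stability score vs G1/S (z-score of summed log2 fold changes over temperatures) in this document: synchronized HeLa Kyoto cells, proteins quantified by TMT10plex mass spectrometry, three biological replicates, mitosis taken 0.5 h after nocodazole release, G1/S directly after double thymidine block.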

| Substance | thermal stability score (HeLa Kyoto [1]; [5]) | thermal stability score (HeLa Kyoto [1]; cell cycle stage: mitosis) | solubility change mitosis (log2) (HeLa Kyoto [2]) | melting temperature (HeLa Kyoto [3]; cell cycle stage: G1/S) | melting temperature (HeLa Kyoto [3]; cell cycle stage: mitosis) | solubility in G1/S (log2) (HeLa Kyoto [4]) |
| --- | --- | --- | --- | --- | --- | --- |
| MDSVEKGAATSVSNPRGRPSRGRPPKLQRNSRGGQGRGVEKPPHLAALILARGGSKGIPLKNIKHLAGVPLIGWVLRAALDSGAFQSVWVSTDHDEIENVAKQFGAQVHRRSSEVSKDSSTSLDAIIEFLNYHNEVDIVGNIQATSPCLHPTDLQKVAEMIREEGYDSVFSVVRRHQFRWSEIQKGVREVTEPLNLNPAKRPRRQDWDGELYENGSFYFAKRHLIEMGYLQGGKMAYYEMRAEHSVDIDVDIDWPIAEQRVLRYGYFGKEKLKEIKLLVCNIDGCLTNGHIYVSGDQKEIISYDVKDAIGISLLKKSGIEVRLISERACSKQTLSSLKLDCKMEVSVSDKLAVVDEWRKEMGLCWKEVAYLGNEVSDEECLKRVGLSGAPADACSTAQKAVGYICKCNGGRGAIREFAEHICLLMEKVNNSCQK [CMAS] | -0.251 | -0.391 | 0.303 | 50.8 °C | 50 °C | -0.289 |
| MEAERGPERRPAERSSPGQTPEEGAQALAEFAALHGPALRASGVPERYWGRLLHKLEHEVFDAGEVFGIMQVEEVEEEEDEAAREVRKQQPNPGNELCYKVIVTRESGLQAAHPNSIFLIDHAWTCRVEHARQQLQQVPGLLHRMANLMGIEFHGELPSTEAVALVLEEMWKFNQTYQLAHGTAEEKMPVWYIMDEFGSRIQHADVPSFATAPFFYMPQQVAYTLLWPLRDLDTGEEVTRDFAYGETDPLIRKCMLLPWAPTDMLDLSSCTPEPPAEHYQAILEENKEKLPLDINPVVHPHGHIFKVYTDVQQVASSLTHPRFTLTQSEADADILFNFSHFKDYRKLSQERPGVLLNQFPCENLLTVKDCLASIARRAGGPEGPPWLPRTFNLRTELPQFVSYFQQRERWGEDNHWICKPWNLARSLDTHVTKSLHSIIRHRESTPKVVSKYIESPVLFLREDVGKVKFDIRYIVLLRSVRPLRLFVYDVFWLRFSNRAFALNDLDDYEKHFTVMNYDPDVVLKQVHCEEFIPEFEKQYPEFPWTDVQAEIFRAFTELFQVACAKPPPLGLCDYPSSRAMYAVDLMLKWDNGPDGRRVMQPQILEVNFNPDCERACRYHPTFFNDVFSTLFLDQPGGCHVTCLV [TTLL12] | 2 | 3.92 | -0.125 | 47.6 °C | 48.4 °C | 0.0605 |
| NUMA1 | 5.09 | 8.74 | 0.493 | 47.7 °C | 49.7 °C | -0.199 |
| MAAAAPVAADDDERRRRPGAALEDSRSQEGANGEAESGELSRLRAELAGALAEMETMKAVAEVSESTKAEAVAAVQRQCQEEVASLQAILKDSISSYEAQITALKQERQQQQQDCEEKERELGRLKQLLSRAYPLDSLEKQMEKAHEDSEKLREIVLPMEKEIEELKAKLLRAEELIQEIQRRPRHAPSLHGSTELLPLSRDPSPPLEPLEELSGDGGPAAEAFAHNCDDSASISSFSLGGGVGSSSSLPQSRQGLSPEQEETASLVSTGTLVPEGIYLPPPGYQLVPDTQWEQLQTEGRQLQKDLESVSRERDELQEGLRRSNEDCAKQMQVLLAQVQNSEQLLRTLQGTVSQAQERVQLQMAELVTTHKCLHHEVKRLNEENQGLRAEQLPSSAPQGSQQEQGEEESLPSSVPELQQLLCCTRQEARARLQAQEHGAERLRIEIVTLREALEEETVARASLEGQLRVQREETEVLEASLCSLRTEMERVQQEQSKAQLPDLLSEQRAKVLRLQAELETSEQVQRDFVRLSQALQVRLERIRQAETLEQVRSIMDEAPLTDVRDIKDT [RABEP2] | -0.553 | 0.297 | 0.304 | 49 °C | 50.6 °C | 0.504 |
| MAYQSLRLEYLQIPPVSRAYTTACVLTTAAVQLELITPFQLYFNPELIFKHFQIWRLITNFLFFGPVGFNFLFNMIFLYRYCRMLEEGSFRGRTADFVFMFLFGGFLMTLFGLFVSLVFLGQAFTIMLVYVWSRRNPYVRMNFFGLLNFQAPFLPWVLMGFSLLLGNSIIVDLLGIAVGHIYFFLEDVFPNQPGGIRILKTPSILKAIFDTPDEDPNYNPLPEERPGGFAWGEGQRLGG [DERL2] | -0.206 | -1.33 | -0.0878 | 54.4 °C | – | -0.0605 |
| MSGGGPSGGGPGGSGRARTSSFAEPGGGGGGGGGGPGGSASGPGGTGGGKASVGAMGGGVGASSSGGGPGGSGGGGSGGPGAGTSFPPPGVKLGRDSGKVTTVVATLGQGPERSQEVAYTDIKVIGNGSFGVVYQARLAETRELVAIKKVLQDKRFKNRELQIMRKLDHCNIVRLRYFFYSSGEKKDELYLNLVLEYVPETVYRVARHFTKAKLTIPILYVKVYMYQLFRSLAYIHSQGVCHRDIKPQNLLVDPDTAVLKLCDFGSAKQLVRGEPNVSYICSRYYRAPELIFGATDYTSSIDVWSAGCVLAELLLGQPIFPGDSGVDQLVEIIKVLGTPTREQIREMNPNYTEFKFPQIKAHPWTKVFKSRTPPEAIALCSSLLEYTPSSRLSPLEACAHSFFDELRCLGTQLPNNRPLPPLFNFSAGELSIQPSLNAILIPPHLRSPAGTTTLTPSSQALTETPTSSDWQSTDATPTLTNSS [GSK3A] | -1 | -0.972 | -0.0272 | 52.3 °C | 52.7 °C | 0.181 |
| MNSPGGRGKKKGSGGASNPVPPRPPPPCLAPAPPAAGPAPPPESPHKRNLYYFSYPLFVGFALLRLVAFHLGLLFVWLCQRFSRALMAAKRSSGAAPAPASASAPAPVPGGEAERVRVFHKQAFEYISIALRIDEDEKAGQKEQAVEWYKKGIEELEKGIAVIVTGQGEQCERARRLQAKMMTNLVMAKDRLQLLEKMQPVLPFSKSQTDVYNDSTNLACRNGHLQSESGAVPKRKDPLTHTSNSLPRSKTVMKTGSAGLSGHHRAPSYSGLSMVSGVKQGSGPAPTTHKGTPKTNRTNKPSTPTTATRKKKDLKNFRNVDSNLANLIMNEIVDNGTAVKFDDIAGQDLAKQALQEIVILPSLRPELFTGLRAPARGLLLFGPPGNGKTMLAKAVAAESNATFFNISAASLTSKYVGEGEKLVRALFAVARELQPSIIFIDEVDSLLCERREGEHDASRRLKTEFLIEFDGVQSAGDDRVLVMGATNRPQELDEAVLRRFIKRVYVSLPNEETRLLLLKNLLCKQGSPLTQKELAQLARMTDGYSGSDLTALAKDAALGPIRELKPEQVKNMSASEMRNIRLSDFTESLKKIKRSVSPQTLEAYIRWNKDFGDTTV [SPAST] | 0.0551 | 1.16 | -0.012 | 48.8 °C | 49.3 °C | 0.427 |
| MMDIYVCLKRPSWMVDNKRMRTASNFQWLLSTFILLYLMNQVNSQKKGAPHDLKCVTNNLQVWNCSWKAPSGTGRGTDYEVCIENRSRSCYQLEKTSIKIPALSHGDYEITINSLHDFGSSTSKFTLNEQNVSLIPDTPEILNLSADFSTSTLYLKWNDRGSVFPHRSNVIWEIKVLRKESMELVKLVTHNTTLNGKDTLHHWSWASDMPLECAIHFVEIRCYIDNLHFSGLEEWSDWSPVKNISWIPDSQTKVFPQDKVILVGSDITFCCVSQEKVLSALIGHTNCPLIHLDGENVAIKIRNISVSASSGTNVVFTTEDNIFGTVIFAGYPPDTPQQLNCETHDLKEIICSWNPGRVTALVGPRATSYTLVESFSGKYVRLKRAEAPTNESYQLLFQMLPNQEIYNFTLNAHNPLGRSQSTILVNITEKVYPHTPTSFKVKDINSTAVKLSWHLPGNFAKINFLCEIEIKKSNSVQEQRNVTIKGVENSSYLVALDKLNPYTLYTFRIRCSTETFWKWSKWSNKKQHLTTEASPSKGPDTWREWSSDGKNLIIYWKPLPINEANGKILSYNVSCSSDEETQSLSEIPDPQHKAEIRLDKNDYIISVVAKNSVGSSPPSKIASMEIPNDDLKIEQVVGMGKGILLTWHYDPNMTCDYVIKWCNSSRSEPCLMDWRKVPSNSTETVIESDEFRPGIRYNFFLYGCRNQGYQLLRSMIGYIEELAPIVAPNFTVEDTSADSILVKWEDIPVEELRGFLRGYLFYFGKGERDTSKMRVLESGRSDIKVKNITDISQKTLRIADLQGKTSYHLVLRAYTDGGVGPEKSMYVVTKENSVGLIIAILIPVAVAVIVGVVTSILCYRKREWIKETFYPDIPNPENCKALQFQKSVCEGSSALKTLEMNPCTPNNVEVLETRSAFPKIEDTEIISPVAERPEDRSDAEPENHVVVSYCPPIIEEEIPNPAADEAGGTAQVIYIDVQSMYQPQAKPEEEQENDPVGGAGYKPQMHLPINSTVEDIAAEEDLDKTAGYRPQANVNTWNLVSPDSPRSIDSNSEIVSFGSPCSINSRQFLIPPKDEDSPKSNGGGWSFTNFFQNKPND [LIFR] | -3.21 | -1.95 | -0.094 | 54.8 °C | 55.1 °C | 0.206 |
| MGRIFLDHIGGTRLFSCANCDTILTNRSELISTRFTGATGRAFLFNKVVNLQYSEVQDRVMLTGRHMVRDVSCKNCNSKLGWIYEFATEDSQRYKEGRVILERALVRESEGFEEHVPSDNS [YPEL5] | 0.121 | -0.0508 | -0.00616 | 50.7 °C | 52.5 °C | 0.00475 |
| MRFLAATFLLLALSTAAQAEPVQFKDCGSVDGVIKEVNVSPCPTQPCQLSKGQSYSVNVTFTSNIQSKSSKAVVHGILMGVPVPFPIPEPDGCKSGINCPIQKDKTYSYLNKLPVKSEYPSIKLVVEWQLQDDKNQSLFCWEIPVQIVSHL [NPC2] | -3.22 | -2.19 | 0.0342 | 58.9 °C | 53.4 °C | 0.123 |

— the supplement of paper PMC5998384
